Test results taken from patent US20170189519A1 (Janssen / Centocor, published 2017).

What was measured:
[1] = molecular target: T1, 146G7 (influenza A H1N1 A/Brisbane/59/2007); experiment: ratio against parental SEQ ID NO: 6
[2] = molecular target: T2, 262B9 (influenza A H1N1 A/Brisbane/59/2007); experiment: ratio against parental SEQ ID NO: 6
[3] = molecular target: T3, 189E10 (influenza A H1N1 A/Brisbane/59/2007); experiment: ratio against parental SEQ ID NO: 6
[4] = molecular target: T1, 146G7; experiment: ELISA signal over HTRF expression signal
[5] = molecular target: T2, 262B9; experiment: ELISA signal over HTRF expression signal
[6] = molecular target: T3, 189E10; experiment: ELISA signal over HTRF expression signal
[7] = molecular target: T1, 146G7; experiment: ELISA, coated CR6261, P. pastoris medium
[8] = molecular target: T2, 262B9; experiment: ELISA, coated CR6261, P. pastoris medium
[9] = molecular target: T3, 189E10; experiment: ELISA, coated CR6261, P. pastoris medium
[10] = molecular target: s127H1-t2-cl18long (influenza A virus H1N1 …, UniProt A8C8J4 18-529)

Row | Binder | fold increase of ratio over parental H1 mini-HA [1] | fold increase of ratio over parental H1 mini-HA [2] | fold increase of ratio over parental H1 mini-HA [3] | ratio of CR6261 binding signal to HTRF signal [4] | ratio of CR6261 binding signal to HTRF signal [5] | ratio of CR6261 binding signal to HTRF signal [6] | CR6261 binding signal [7] | CR6261 binding signal [8] | CR6261 binding signal [9] | EC50 [10]
1 | CR6261 (antibody, V domains shown) VH: EVQLVESGAEVKKPGSSVKVSCKASGGPFRSYAISWVRQAPGQGPEWMGGIIPIFGTTKYAPKFQGRVTITADDFAGTVYMELSSLRSEDTAMYYCAKHMGYQVRETMDVWGKGTTVTVSS VL: QSVLTQPPSVSAAPGQKVTISCSGSSSNIGNDYVSWYQQLPGTAPKLLIYDNNKRPSGIPDRFSGSKSGTSATLGITGLQTGDEANYYCATWDRRPTAYVVFGGGTKLTVLG [CR6261, listing 1 of 2 here] | 1.71 | 1.66 | 1.74 | 10.2 | 9.89 | 10.3 | 534000 | 94700 | 189000 | –
2 | CR6261 (antibody, V domains shown) VH: EVQLVESGAEVKKPGSSVKVSCKASGGPFRSYAISWVRQAPGQGPEWMGGIIPIFGTTKYAPKFQGRVTITADDFAGTVYMELSSLRSEDTAMYYCAKHMGYQVRETMDVWGKGTTVTVSS VL: QSVLTQPPSVSAAPGQKVTISCSGSSSNIGNDYVSWYQQLPGTAPKLLIYDNNKRPSGIPDRFSGSKSGTSATLGITGLQTGDEANYYCATWDRRPTAYVVFGGGTKLTVLG [CR6261, listing 2 of 2 here] | – | – | – | – | – | – | – | – | – | 0.139 µg/mL
